Data taken from publication PMC4605295, “The N-terminus of RPA large subunit and its spatial position are important for the 5′->3′ resection of DNA double-strand breaks” (Nucleic Acids Research, 2015).

Target: T1, GST fusion of Xenopus RPA1 (RPA large subunit) (Xenopus, UniProt Q01588 1-609)
T1 construct: Xenopus RPA1, large subunit of replication protein A; the gene for the subunit was subcloned into a pGEX vector; In-frame GST fusion from a pGEX vector; also called the large subunit; source: E. coli BL21(DE3), purified (glutathione Sepharose)
Test: pull-down; GST fusions of RPA subunits or RPA1 regions incubated with His-tagged WRN 1-465, isolated on glutathione Sepharose beads, 4°C 1 h; washed with buffer A + 150 mM NaCl + 0.005% NP-40; Western blot for WRN
Settings: both partners purified

T1 sequence (Q01588 whole entry, the tested form may be a part): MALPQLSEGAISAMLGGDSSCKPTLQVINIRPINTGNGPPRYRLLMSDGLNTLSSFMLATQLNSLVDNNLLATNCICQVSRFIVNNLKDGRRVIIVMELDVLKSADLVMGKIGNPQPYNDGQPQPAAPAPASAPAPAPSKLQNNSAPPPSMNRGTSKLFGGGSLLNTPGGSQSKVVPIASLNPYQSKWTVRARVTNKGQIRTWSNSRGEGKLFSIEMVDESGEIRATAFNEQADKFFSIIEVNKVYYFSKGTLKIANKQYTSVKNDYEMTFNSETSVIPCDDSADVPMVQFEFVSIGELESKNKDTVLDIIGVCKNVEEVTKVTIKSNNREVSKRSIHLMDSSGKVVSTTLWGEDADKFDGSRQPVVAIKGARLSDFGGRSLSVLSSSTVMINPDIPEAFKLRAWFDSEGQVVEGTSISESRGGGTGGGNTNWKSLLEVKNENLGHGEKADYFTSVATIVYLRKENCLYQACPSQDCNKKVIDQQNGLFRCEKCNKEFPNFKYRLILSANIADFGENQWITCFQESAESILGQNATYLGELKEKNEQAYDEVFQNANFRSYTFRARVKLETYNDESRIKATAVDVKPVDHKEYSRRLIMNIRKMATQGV

B1: His-tagged Xenopus WRN 1-465 (domain or fragment, UniProt O93530 1-465, looked up)
chain: MTSLQRKLPEWMSVKQQEDRIDDAKKSFCKKNILEDNLPFMKFNGSIVYSYESNDCSLLSEDIRSSLLEEDVLGFDIEWPPVYTKGKTGKVALIQVCVSEKKCYLFHISPMAGFPKGLKRLLEDESVRKVGVGIEGDQWKLMSDYELKLKGFIELSEMANQKLRCKEKWTFNGLIKHLFKEQLYKRKSYRCSNWDIFLLTEDQKLYAATDAYAGLLIYKKLEGMDAHESDSFRVGREGVADCKGVKRQLTDLSKGLMDLVNQVPNSFGCYTEAVRAVDILEDLSEKLEELRNIMKEASKAEGNGLHFQNSEDCSKKDKSILHVACKESLAEHKMDCKNADSQNNKDIDSCQNENRDEDFFMTLGISEEELYMMEREDDKKQTNPDYKLNKDSCDTNEEKDMSYVIESDEDFDSEIIKSLEDLDNSTEEALGTGVPQAGLIPAKSVDTVADEEEDEGIEEEDDDDD
binding result: binds
